Assay results reported in publication PMC7718258, “A substrate binding model for the KEOPS tRNA modifying complex”.

T1: mjKae1 (Methanocaldococcus jannaschii, UniProt Q58530 1-332)
T1 sequence: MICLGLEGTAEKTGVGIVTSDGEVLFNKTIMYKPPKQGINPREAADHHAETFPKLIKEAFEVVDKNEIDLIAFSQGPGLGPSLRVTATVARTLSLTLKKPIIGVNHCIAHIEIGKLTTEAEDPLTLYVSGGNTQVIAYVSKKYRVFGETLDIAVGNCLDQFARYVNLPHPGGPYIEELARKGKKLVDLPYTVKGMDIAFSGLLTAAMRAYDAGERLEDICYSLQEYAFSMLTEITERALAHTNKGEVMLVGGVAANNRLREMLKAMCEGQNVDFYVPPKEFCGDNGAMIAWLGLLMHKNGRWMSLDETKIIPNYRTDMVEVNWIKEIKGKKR

T2: mjCgi121;mjBud32 (Methanocaldococcus …, UniProt Q57646;Q58530 1-145;333-535, |)
T2 sequence 1: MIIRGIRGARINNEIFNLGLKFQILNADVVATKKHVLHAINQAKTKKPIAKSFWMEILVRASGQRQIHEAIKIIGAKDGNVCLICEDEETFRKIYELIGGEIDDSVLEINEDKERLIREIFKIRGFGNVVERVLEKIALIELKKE
T2 sequence 2: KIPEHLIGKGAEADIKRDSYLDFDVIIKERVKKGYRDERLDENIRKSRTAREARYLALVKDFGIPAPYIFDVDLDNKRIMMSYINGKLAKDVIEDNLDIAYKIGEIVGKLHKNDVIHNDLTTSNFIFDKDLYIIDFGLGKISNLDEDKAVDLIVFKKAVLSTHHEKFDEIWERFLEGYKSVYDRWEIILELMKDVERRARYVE

T3: mjBud32 (Methanocaldococcus jannaschii, UniProt Q58530 333-535)
T3 sequence: T2 sequence 2

T4: mjCgi121 (Methanocaldococcus jannaschii, UniProt Q57646 1-145)
T4 sequence: T2 sequence 1

T5: mjCgi121;mjBud32;mjKae1 (Methanocaldococcus …, UniProt Q57646;Q58530;Q58530 1-145;333-535;1-332, ||)
T5 sequence 1: T2 sequence 1
T5 sequence 2: T2 sequence 2
T5 sequence 3: T1 sequence


What was measured:
TPRKB;PRPK;OSGEP;LAGE3 = TPRKB;PRPK;OSGEP;LAGE3 (Homo sapiens;Homo sapiens;Homo …, UniProt Q9Y3C4;Q96S44;Q9NPF4;Q14657 1-175;1-253;1-335;1-143, |||); assay: fluorescence polarization; 20 mM HEPES pH 7.5, 100 mM NaCl, 2 mM DTT; filter binding 50 nM 32P-tRNA, 1 h, room temperature; FP 50 nM 647-CCA; NMR 25 C with 10% D2O; details: protein: recombinant;recombinant;recombinant;recombinant; tags: GST removed by TEV;GST-His6 removed by TEV;;His; copies: 1;1;1;1; label: 5' Alexa-647; single strand
mjKae1 = target: T1, mjKae1; assay: as above; details: protein: recombinant; tags: GST removed by TEV; label: 5' Alexa-647; single strand
mjCgi121;mjBud32 = target: T2, mjCgi121;mjBud32; assay: as above; details: protein: recombinant;recombinant; tags: GST removed by TEV;His6 removed by TEV; copies: 1;1; label: 5' Alexa-647; single strand
mjBud32 = target: T3, mjBud32; assay: as above; details: protein: recombinant; tags: His6 removed by TEV; label: 5' Alexa-647; single strand
scQri7 = scQri7 (Saccharomyces cerevisiae, UniProt P43122 30-407); assay: as above; details: protein: recombinant; tags: His6 removed by TEV; label: 5' Alexa-647; single strand
Sequence of scQri7 (P43122 30-407): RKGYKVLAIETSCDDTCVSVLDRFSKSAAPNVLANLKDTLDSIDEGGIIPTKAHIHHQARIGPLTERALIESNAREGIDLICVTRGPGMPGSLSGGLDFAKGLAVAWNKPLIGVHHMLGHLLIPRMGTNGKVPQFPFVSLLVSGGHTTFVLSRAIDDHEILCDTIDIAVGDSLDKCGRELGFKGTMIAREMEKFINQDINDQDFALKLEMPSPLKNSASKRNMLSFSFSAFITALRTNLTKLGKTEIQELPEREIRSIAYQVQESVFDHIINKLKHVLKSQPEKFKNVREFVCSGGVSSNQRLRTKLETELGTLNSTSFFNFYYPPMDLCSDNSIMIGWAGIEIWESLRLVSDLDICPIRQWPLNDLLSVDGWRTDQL

TPRKB;PRPK = TPRKB;PRPK (Homo sapiens;Homo sapiens, UniProt Q9Y3C4;Q96S44 1-175;1-253, |); assay: as above; details: protein: recombinant;recombinant; tags: GST removed by TEV;GST-His6 removed by TEV; copies: 1;1; label: 5' Alexa-647; single strand
mjCgi121 [1] = target: T4, mjCgi121; assay: as above; details: protein: recombinant; tags: GST removed by TEV; label: 5' Alexa-647; single strand
TPRKB = TPRKB (Homo sapiens, UniProt Q9Y3C4 1-175); assay: as above; details: protein: recombinant; tags: GST removed by TEV; label: 5' Alexa-647; single strand
mjCgi121;mjBud32;mjKae1 = target: T5, mjCgi121;mjBud32;mjKae1; assay: as above; details: protein: recombinant;recombinant;recombinant; tags: GST removed by TEV;His6 removed by TEV;GST removed by TEV; copies: 1;1;1; label: 5' Alexa-647; single strand
mjCgi121 [2] = target: T4, mjCgi121; assay: competition; displacement of 32P-tRNA, filter binding, 5 uM protein; 20 mM HEPES pH 7.5, 100 mM NaCl, 2 mM DTT; filter binding 50 nM 32P-tRNA, 1 h, room temperature; FP 50 nM 647-CCA; NMR 25 C with 10% D2O; details: protein: recombinant; tags: GST removed by TEV; single strand

| Binder | Kd (TPRKB;PRPK;OSGEP;LAGE3) | binding result (mjKae1) | Kd (mjCgi121;mjBud32) | binding result (mjBud32) | binding result (scQri7) | Kd (TPRKB;PRPK) | Kd (mjCgi121 [1]) | Kd (TPRKB) | Kd (mjCgi121;mjBud32;mjKae1) | binding result (mjCgi121 [2]) |
| --- | --- | --- | --- | --- | --- | --- | --- | --- | --- | --- |
| CCGCCA (ssRNA) [647-CCA] | 4300 nM | no binding | 229 nM | no binding | no binding | 450 nM | 730 nM | 28000 nM | 153 nM |  |
| CCCGCCA (ssRNA) [CCA-oligo] |  |  |  |  |  |  |  |  |  | binds |
| ACCGCCC (ssRNA) [inverted oligo] |  |  |  |  |  |  |  |  |  | no binding |
